# Results as given in the RNAGym collection of RNA variant scans (doi:10.7554/elife.80360).
# B1: CPEB3 Ribozyme (parent)
# chain: GGGGGCCACAGCAGAAGCGUUCACGUCGCGGCCCCUGUCAGAUUCUGGUGAAUCUGCGAAUUCUGCUGU
# Variants of: B1
# Test: self-cleavage, relative activity (ratio to wild type); higher = more cleavage; co-transcriptional
row,Variant,self-cleavage
1,A15G G50A,0.973
2,G14U C32U,0.816
3,G14U C32A,0.333
4,A15G C39A,0.833
5,A15G U64G,0.918
6,A15C C57U,0.423
7,A15C U55A,0.435
8,A15C U55C,0.545
9,A15G A59U,0.785
10,A15G A59G,0.994
11,A15C G31A,0.456
12,A15C G31C,0.27
13,A15C U69C,0.978
14,A15U A42U,0.613
15,A15U A42C,0.594
16,A15G U38C,0.97
17,A15G U38G,0.157
18,G14U C27U,0.15
19,G14U U26A,0.555
20,G14U U26G,0.559
21,G14U A60G,0.4
22,A15G U49G,0.95
23,A15G U49C,0.968
24,A15G U49A,0.986

row,Variant,self-cleavage
1,A15C G65A,0.43
2,A15C A52G,0.98
3,G14U C66G,0.325
4,G14U C66A,0.374
5,A15G U69G,1.05
6,A15G U69A,1.04
7,A15G U69C,1.05
8,A15G C22U,0.287
9,A15G U26G,0.953
10,A15G U26A,0.905
11,A15G U26C,1.03
12,A15C G68C,0.917
13,A15C G68U,0.969
14,A15C U61C,0.356
15,A15C U61G,0.723
16,A15C U61A,0.468
17,A15C C35G,0.285
18,A15C C35A,0.229
19,A15G A60G,0.821
20,A15G A60C,0.43
21,A15C C18G,0.0508
22,A15C C18A,0.174
23,A15C C18U,0.296
24,A15G U62C,0.956

row,Variant,self-cleavage
1,A15G U62A,0.906
2,A15C C32A,0.302
3,A15C C32G,0.153
4,A15C C22U,0.2
5,A15G C32A,0.816
6,A15G C32U,1.02
7,A15U A59U,0.331
8,A15U A59C,0.42
9,A15U A59G,0.856
10,G14U G31C,0.163
11,G14U G31U,0.164
12,G14U G31A,0.305
13,A15G C18A,0.192
14,A15G C18U,0.792
15,A15G C18G,0.198
16,A15U A40G,0.697
17,A15U A40C,0.287
18,G14U G17A,0.145
19,G14U G17U,0.161
20,A15G G47A,0.971
21,A15G C66A,0.828
22,A15G C66U,0.964
23,G14U U53C,0.33
24,G14U U53A,0.356

row,Variant,self-cleavage
1,G14U U53G,0.439
2,A15G C33U,0.999
3,A15G C33A,0.798
4,A15G C33G,0.534
5,G14U U67C,0.55
6,G14U U67G,0.77
7,A15C U21A,0.791
8,A15C U21C,0.51
9,G14U C39G,0.373
10,G14U C39U,0.394
11,G14U G47A,0.836
12,G14U G47C,0.877
13,G14U G47U,0.857
14,A15C A40C,0.137
15,A15C A40G,0.626
16,G14U G37C,0.129
17,G14U G37U,0.129
18,A15C A60C,0.308
19,A15C A60U,0.377
20,A15C A60G,0.292
21,A15G,1
22,A15U,0.928
23,A15C,0.923
24,G14U C45G,0.62

row,Variant,self-cleavage
1,G14U C45U,0.721
2,G14U C45A,0.665
3,A15C U38A,0.595
4,A15C U38C,0.571
5,A15C U38G,0.292
6,A15G C34U,1.01
7,A15G C34A,0.764
8,A15G C34G,0.665
9,A15G U55A,0.892
10,A15G U55G,0.85
11,A15G U55C,0.869
12,A15C U20A,0.125
13,A15C U20G,0.139
14,A15C U20C,0.284
15,A15G C27G,0.316
16,A15G C27A,0.645
17,A15G C27U,0.204
18,A15C U43C,0.754
19,A15G U21G,0.578
20,A15G U21A,0.956
21,A15G G41U,0.891
22,A15C U67G,0.934
23,A15G G37U,0.286
24,A15G G37A,0.27

row,Variant,self-cleavage
1,A15G U61C,0.892
2,A15G U61A,0.982
3,A15G U61G,0.822
4,A15C A59C,0.288
5,G14U G56C,0.292
6,G14U G56U,0.309
7,A15C G30A,0.392
8,A15C G30U,0.0766
9,G14U C18U,0.225
10,G14U C18G,0.0825
11,G14U C18A,0.142
12,A15C G47U,0.916
13,A15C C63G,0.921
14,A15C G28C,0.146
15,A15C G28A,0.138
16,A15C G28U,0.191
17,A15G A16U,0.691
18,A15G A16G,0.93
19,G14U U21C,0.379
20,G14U U21A,0.733
21,G14U U38G,0.111
22,G14U U38C,0.573
23,G14U U38A,0.566
24,A15G U46C,0.974

row,Variant,self-cleavage
1,G14U G41C,0.245
2,A15C C39G,0.596
3,A15C C39U,0.535
4,A15U A51G,0.916
5,A15U A51C,0.79
6,A15G A23G,0.959
7,A15G A23U,1.04
8,G14U G58C,0.72
9,G14U G58A,0.679
10,A15C G25A,0.127
11,A15C C54U,0.865
12,A15C C54A,0.447
13,A15C C54G,0.567
14,A15G G48C,1
15,A15G G48U,0.989
16,A15G G48A,0.966
17,A15G C63U,0.947
18,A15G C63A,0.799
19,A15G C63G,0.674
20,G14U G19A,0.148
21,G14U C22A,0.15
22,G14U C22U,0.15
23,A15G U67C,0.943
24,A15G U67G,0.996

row,Variant,self-cleavage
1,A15G U67A,0.971
2,A15G G58U,0.978
3,A15G G58C,1.01
4,A15G G19U,0.439
5,A15G G19C,0.15
6,A15G G19A,0.216
7,G14U C33U,0.79
8,G14U C33A,0.522
9,G14U U64C,0.401
10,G14U U64A,0.458
11,G14U U64G,0.481
12,G14U U55G,0.268
13,G14U U55C,0.345
14,G14U A59U,0.365
15,A15C G50C,0.808
16,A15C G50A,0.933
17,A15C A42G,0.678
18,A15C A42C,0.602
19,A15C A42U,0.618
20,A15C C66U,0.725
21,A15C C66A,0.357
22,A15G G28U,0.141
23,A15G G28A,0.179
24,A15C C27U,0.119

row,Variant,self-cleavage
1,A15C C27G,0.123
2,A15G G68A,1.02
3,A15G G68C,1.05
4,G14U C34U,0.833
5,G14U C34G,0.347
6,G14U C34A,0.526
7,G14U G65U,0.334
8,G14U G65C,0.384
9,G14U G65A,0.32
10,A15G C35A,0.273
11,A15G C35U,0.96
12,A15G C35G,0.457
13,A15C U44G,0.739
14,A15C U44A,0.662
15,A15C U44C,0.659
16,A15G C24A,0.691
17,A15G G17A,0.312
18,A15G G17U,0.424
19,A15C C33A,0.32
20,A15C C33G,0.259
21,G14U C35U,0.601
22,G14U C35G,0.309
23,G14U A52U,0.767
24,G14U A52C,0.715

row,Variant,self-cleavage
1,G14U U61C,0.367
2,G14U U61G,0.432
3,A15C A51C,0.752
4,G14U C63G,0.994
5,G14U C63U,0.893
6,G14U C63A,0.994
7,A15C C34A,0.394
8,A15C U26C,0.73
9,A15C U26A,0.48
10,A15G A52C,0.949
11,A15G C45G,0.965
12,A15G C45A,1
13,A15G C45U,1.02
14,A15G A42G,0.928
15,A15G A42C,0.789
16,A15C G17U,0.25
17,A15C G17A,0.136
18,A15G C54U,1.04
19,A15G C54G,0.886
20,A15G C54A,0.914
21,G14U U62G,0.513
22,G14U U62C,0.364
23,G14U U36A,0.18
24,G14U C29U,0.111

row,Variant,self-cleavage
1,G14U C29G,0.167
2,G14U C29A,0.19
3,A15G U20G,0.161
4,A15G U20A,0.092
5,G14U U49C,0.678
6,G14U U49G,0.867
7,G14U G25A,0.141
8,G14U G25U,0.124
9,G14U G25C,0.204
10,A15G C29G,0.458
11,A15G C29A,0.636
12,A15C U36A,0.288
13,A15C U36C,0.487
14,A15C U36G,0.214
15,A15C G56U,0.626
16,A15C G56A,0.651
17,G14U U46C,0.758
18,G14U U46A,0.862
19,A15U A52C,0.889
20,A15U A52U,0.804
21,A15G C57A,0.45
22,A15G C57G,0.259
23,A15C G37A,0.196
24,A15C G37U,0.168

row,Variant,self-cleavage
1,A15C G37C,0.105
2,A15C U64A,0.952
3,A15C U64G,0.91
4,A15C U64C,0.958
5,A15G U43C,1.01
6,A15C A16U,0.49
7,A15C A16G,0.142
8,A15C A16C,0.111
9,A15G G65C,0.825
10,A15G G65U,0.784
11,A15G A51C,0.993
12,G14U G28U,0.164
13,G14U U43G,0.278
14,G14U U43C,0.472
15,A15C U53A,0.651
16,G14U G30U,0.155
17,G14U G30A,0.288
18,G14U G30C,0.187
19,A15G G56A,0.944
20,A15G G56C,0.785
21,A15G G56U,0.985
22,G14U G50C,0.616
23,G14U G50U,0.815
24,G14U G50A,0.812

row,Variant,self-cleavage
1,A15C C24U,0.27
2,A15C C24A,0.273
3,A15C G41A,0.289
4,A15C G41C,0.215
5,A15C U46A,0.93
6,A15C U46C,0.88
7,A15C G48U,0.883
8,A15C G48A,0.935
9,A15C G48C,0.918
10,A15U A16C,0.135
11,A15U A16U,0.798
12,G14U U44C,0.325
13,A15C G58C,0.84
14,A15C G58A,0.809
15,G14U C57A,0.216
16,G14U C57G,0.246
17,G14U C57U,0.351
18,A15C C29U,0.122
19,A15C C29G,0.163
20,A15G A40G,0.996
21,A15G G31C,0.204
22,A15G G31A,0.874
23,A15U A23U,0.95
24,A15U A23G,0.658

row,Variant,self-cleavage
1,A15U A23C,0.723
2,A15G U36A,0.203
3,A15G U36G,0.152
4,A15G U36C,0.966
5,A15G G25A,0.127
6,A15G G25U,0.148
7,A15G G25C,0.133
8,G14U U20A,0.121
9,G14U U20G,0.137
10,A15C U49G,0.858
11,A15C U49C,0.842
12,G14U G48A,0.893
13,G14U C24U,0.137
14,G14U C24G,0.109
15,A15G G30U,0.342
16,A15G G30A,0.917
17,G14U G68U,0.816
18,A15G U53C,0.859
19,A15G U53G,0.958
20,G14U C54G,0.363
21,G14U C54A,0.266
22,G14U C54U,0.734
